Measurements as given in patent publication US7521540B2, “CYR61 compositions and methods” (Munin Corporation, priority 1996, dated 2009).

What was measured:
NIH 3T3 cells = test: Fibroblast chemotaxis, modified Boyden chamber; type: cell-based, mouse
From the text: Cyr61 also affects chondrocytes, e.g., […] involved in skeletal development. In particular, Cyr61 influences the development, and perhaps maintenance, of cartilage, in contrast to the variety of growth-related proteins that exclusively influence development and maintenance of the bony skeleton. The chemotactic response of NIH 3T3 cells to murine Cyr61 was examined using a modified Boyden chamber (Neuroprobe Inc., catalog no. AP48). Grotendorst, Meth. Enzymol. 147:144-152 (1987). Purified Cyr61 protein was serially diluted in DMEM containing bovine serum albumin (BSA; 0.2 mg/ml) and added to the lower well of the chamber. The lower well was then covered with a collagen-coated polycarbonate filter (8 μm pore diameter; Nucleopore Corp., Pleasanton, Calif.). Cells (6×10^4) were then loaded into the upper well. After 5 hours incubation (10% CO2, 37° C.), the filter was removed and the cells were fixed and stained using Wright-Giemsa stain (Harleco formulation; EM Diagnostic Systems, Gibbstown, N.J.). Cells from the upper surface of the filter were then removed by wiping with a tissue swab. The chemotactic response was determined by counting the total number of migrating cells detected in ten randomly selected high-power microscopic fields (400-fold magnification) on the lower surface of the filter. Duplicate trials were performed for each experiment and the experiment was repeated three times to ensure reproducibility of the data.

Limb mesenchymal cells [1] = test: Limb bud mesenchymal cell attachment; type: cell-based, mouse; conditions: within 1 hour of plating
Procedure: Cyr61, fibronectin (Gibco), or tenascin (Gibco) were diluted in 0.1% protease-free bovine serum albumin (BSA) in PBS with 0.5 mM PMSF, to a final concentrations of 10 or 50 μg/ml. A 10 μl drop/well was placed in a non-tissue culture treated 24-well plate (Corning), and incubated at room temperature for 2 hours. The wells were blocked with 1% BSA in PBS for 1 hour at room temperature, and rinsed with serum-free MEM (Modified Eagle's Medium). Limb mesenchymal cells, suspended at 5×10^5 cell/ml in serum-free MEM, were added at a volume of 400 μl/well, and incubated at 37° C., 5% CO2 for 1 or 3 hours. At each time point, the cell suspension was removed, the wells were rinsed with MEM and the remaining adherent cells were photographed.

Limb mesenchymal cells [2] = test: Limb mesenchymal cell proliferation in micromass culture; type: cell-based, mouse
Procedure: Ahrens et al., Dev. Biol. 60:69-82 (1977), has reported that these cells, in micromass culture, undergo chondrogenesis in a manner similar to the in vivo process. Mesenchyme cells were obtained from mouse embryonic limb buds by trypsin digestion (1 mg/ml, 1:250 dilution of porcine pancreatic trypsin, Sigma Chemical Co.). Cells were explanted in plastic tissue culture wells and allowed to attach for 2 hours at 37° C., 5% CO2. Cells were then incubated for 24 hours at 37° C., 5% CO2 in MEM with 10% FBS, penicillin (50 U/ml), and streptomycin (50 μg/ml). At this point, the composition of the medium was changed by substituting 4% NuSerum (Collaborative Biomedical Products, Inc.) for 10% FBS. Individual cultures then received Cyr61, fibronectin, heparin (each at approximately 1 μg/ml) or buffer as a negative control. […] Harlow et al.
Cell proliferation during the 4 day culture period was determined by counting cell number and by incorporation of [^3H]-thymidine. To determine cell number, cells were harvested by trypsin/EDTA (Sigma) and counted with a Coulter counter. In parallel cultures, [^3H]-thymidine (1 μCi/ml; ICN) was added to the media for 18 hours and incorporation in the TCA-insoluble layer was determined by liquid scintillation counting.

[3] = tested on: primary human foreskin fibroblasts; test: Cyr61-regulated gene expression (multi-gene blot, Northern); type: cell-based
Procedure: Purified, soluble, recombinant Cyr61 protein was added to cultures of primary human foreskin fibroblasts for 24 hours. From these cells, mRNA was isolated for preparation of probes to hybridize to a multi-gene blot (Clontech Atlas Human Array 1.2 cat no. 7850-1) containing about 650 genes. The levels of expression of these genes in Cyr61-treated cells were compared to that of control cells. […] These findings have been confirmed by Northern blot analysis showing increases or decreases of the mRNAs in question in Cyr61-treated cells. A time course of expression changes has been established. In particular, by 6 hours after its addition, Cyr61 has induced expression of VEGF-A mRNA and the induction is still evident at 12 and 24 hours post-addition. Also at 12 and 24 hours post-addition, Cyr61 has induced expression of VEGF-A polypeptide. With respect to VEGF-C, induction of mRNA is clearly evident 12 hours after addition of Cyr61 and the induction persists at least through 24 hours post-addition. Cyr61 is expected to induce the expression of VEGF-C polypeptide with similar kinetics.

B1: Cyr61: Cysteine-rich ECM signaling protein; murine sequence SEQ ID NO:2, recombinant from Baculovirus-infected Sf9 cells (protein, listed as Mus musculus)
chain: MSSSTFRTLAVAVTLLHLTRLALSTCPAACHCPLEAPKCAPGVGLVRDGCGCCKVCAKQLNEDCSKTQPCDHTKGLECNFGASSTALKGICRAQSEGRPCEYNSRIYQNGESFQPNCKHQCTCIDGAVGCIPLCPQELSLPNLGCPNPRLVKVSGQCCEEWVCDEDSIKDSLDDQDDLLGLDASEVELTRNNELIAIGKGSSLKRLPVFGTEPRVLFNPLHAHGQKCIVQTTSWSQCSKSCGTGISTRVTNDNPECRLVKETRICEVRPCGQPVYSSLKKGKKCSKTKKSPEPVRFTYAGCSSVKKYRPKYCGSCVDGRCCTPLQTRTVKMRFRCEDGEMFSKNVMMIQSCKCNYNCPHPNEASFRLYSLFNDIHKFRD
NIH 3T3 cells
  optimal concentration for the chemotactic activity: 1 to 5 µg/mL
NIH 3T3 cells; 0.5 μg/ml
  migrating cells per high-power field: about 5.2 cells
NIH 3T3 cells; 1 μg/ml
  average number of migrating cells detected per field: 7.5 cells
NIH 3T3 cells; 5 μg/ml
  average number of migrating cells detected per field: 18.5 cells
NIH 3T3 cells; 10 μg/ml
  average number of migrating cells detected per field: 18.7 cells
Limb mesenchymal cells [1]
  attachment morphology of limb mesenchymal cells: adhered as clusters of rounded cells
Limb mesenchymal cells [2]
  cell number and DNA synthesis: both increased cell number and enhanced DNA synthesis after 2 and 3 days in culture
[3]
  time after addition at which VEGF-A mRNA is induced: ≤ 6 h
  time after addition at which VEGF-C mRNA induction is clearly evident: 12 h
[3]; soluble Cyr61, 24 hours
  expression of angiogenic molecules: induction of the angiogenic molecules VEGF1 and VEGF3
  expression of inflammation-related cytokines: induction of the inflammation-related cytokines IL-1 and IL-6
  expression of matrix degrading enzymes: upregulation of matrix degrading enzymes including MMP1, MMP3, and uPA
  expression of matrix protein genes: downregulation of matrix protein genes such as the type I collagen chain gene
